Laboratory results reported in paper PMC6375223.

Molecular target: SKP2 (UniProt Q13309)
Experiment: co-immunoprecipitation from transfected 293T cells
Conditions: reference: wild-type PDCD4; sites S67

PDCD4 (from UniProt Q53EL6) PDCD4 S67A
binding against the reference: lost
